The target of experiment [1] is Collagen I Rat Protein, Tail (rat collagen type I) (rat) (UniProt P02454). Description: whole-cell adhesion assay (fluorescence of sfGFP-expressing bacteria); commercial 96-well plates pre-coated with rat collagen type I (GIBCO); YadA induced with 0.2 µg/ml ATc, compared with the not-induced control.
In experiment [2] the target is Collagen I Bovine Protein (bovine collagen type I) (bovine) (UniProt P02453). Description: whole-cell adhesion assay (fluorescence of sfGFP-expressing bacteria); strain AS76; wells coated with 100 µg/ml bovine collagen type I for 30 min, with or without blocking with 50 mg/ml BSA in PBS for 30 min; YadA induced with 0.1 µg/ml ATc, compared with uninduced cells.
UniProt P02453, sequence (P02453 162-1217, chain 1 of 2): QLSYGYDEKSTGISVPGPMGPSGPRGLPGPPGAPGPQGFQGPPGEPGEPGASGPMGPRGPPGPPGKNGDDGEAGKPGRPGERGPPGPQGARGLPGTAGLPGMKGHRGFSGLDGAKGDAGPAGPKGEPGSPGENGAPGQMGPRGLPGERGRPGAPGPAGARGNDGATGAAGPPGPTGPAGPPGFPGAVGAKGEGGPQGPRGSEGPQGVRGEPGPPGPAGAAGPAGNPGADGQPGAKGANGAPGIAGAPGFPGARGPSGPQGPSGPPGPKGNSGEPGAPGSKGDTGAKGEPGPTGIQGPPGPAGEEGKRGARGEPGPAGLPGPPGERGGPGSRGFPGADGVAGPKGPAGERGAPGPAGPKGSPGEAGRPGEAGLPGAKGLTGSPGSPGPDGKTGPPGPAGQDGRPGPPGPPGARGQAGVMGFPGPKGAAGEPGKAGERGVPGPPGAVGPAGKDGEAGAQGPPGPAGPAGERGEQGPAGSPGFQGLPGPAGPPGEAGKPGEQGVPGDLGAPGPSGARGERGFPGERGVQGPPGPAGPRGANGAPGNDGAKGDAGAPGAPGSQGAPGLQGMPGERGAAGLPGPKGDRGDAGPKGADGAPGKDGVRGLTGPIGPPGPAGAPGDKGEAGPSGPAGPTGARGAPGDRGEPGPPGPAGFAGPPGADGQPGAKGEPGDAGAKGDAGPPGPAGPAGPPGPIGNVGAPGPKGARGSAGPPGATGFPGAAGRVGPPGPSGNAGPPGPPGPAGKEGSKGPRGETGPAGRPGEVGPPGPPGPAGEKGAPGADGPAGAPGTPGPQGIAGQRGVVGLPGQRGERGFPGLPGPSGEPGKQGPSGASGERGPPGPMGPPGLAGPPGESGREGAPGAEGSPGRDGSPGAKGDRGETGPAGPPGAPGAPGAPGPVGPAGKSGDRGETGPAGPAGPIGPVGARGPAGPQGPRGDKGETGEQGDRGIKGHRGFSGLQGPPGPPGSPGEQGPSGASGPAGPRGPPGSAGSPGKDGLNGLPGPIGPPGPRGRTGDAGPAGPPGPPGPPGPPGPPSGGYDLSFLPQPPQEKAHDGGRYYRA
UniProt P02453, sequence (P02465 80-1117, chain 2 of 2, further chain): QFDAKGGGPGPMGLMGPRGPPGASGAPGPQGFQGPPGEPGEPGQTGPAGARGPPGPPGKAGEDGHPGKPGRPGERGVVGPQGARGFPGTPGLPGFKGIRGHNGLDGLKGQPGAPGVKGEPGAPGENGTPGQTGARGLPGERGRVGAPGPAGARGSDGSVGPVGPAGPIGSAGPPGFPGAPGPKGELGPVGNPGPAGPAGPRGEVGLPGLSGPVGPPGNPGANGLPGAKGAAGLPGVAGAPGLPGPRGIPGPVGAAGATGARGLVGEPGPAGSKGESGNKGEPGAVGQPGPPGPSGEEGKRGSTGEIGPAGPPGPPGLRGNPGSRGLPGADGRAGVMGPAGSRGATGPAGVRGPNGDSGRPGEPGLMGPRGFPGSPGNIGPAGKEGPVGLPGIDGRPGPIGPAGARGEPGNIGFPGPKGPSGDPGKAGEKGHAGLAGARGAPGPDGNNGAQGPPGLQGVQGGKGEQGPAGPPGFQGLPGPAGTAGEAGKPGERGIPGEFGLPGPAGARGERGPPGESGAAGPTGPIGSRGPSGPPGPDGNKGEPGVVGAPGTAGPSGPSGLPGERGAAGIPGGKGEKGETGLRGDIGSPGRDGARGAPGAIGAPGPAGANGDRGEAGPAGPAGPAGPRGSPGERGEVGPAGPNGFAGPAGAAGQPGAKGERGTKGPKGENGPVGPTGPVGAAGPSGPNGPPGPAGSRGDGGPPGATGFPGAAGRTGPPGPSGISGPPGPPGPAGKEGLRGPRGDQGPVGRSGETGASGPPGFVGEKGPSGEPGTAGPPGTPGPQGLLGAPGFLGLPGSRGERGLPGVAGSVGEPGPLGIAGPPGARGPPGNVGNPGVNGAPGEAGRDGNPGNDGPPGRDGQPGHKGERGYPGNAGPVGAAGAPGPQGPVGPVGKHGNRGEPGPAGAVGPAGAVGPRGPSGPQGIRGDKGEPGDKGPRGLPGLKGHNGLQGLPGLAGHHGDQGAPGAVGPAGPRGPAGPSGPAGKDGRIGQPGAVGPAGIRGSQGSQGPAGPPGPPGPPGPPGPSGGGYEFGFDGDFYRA

UniProt P02454, sequence (P02454 152-1207, chain 1 of 2): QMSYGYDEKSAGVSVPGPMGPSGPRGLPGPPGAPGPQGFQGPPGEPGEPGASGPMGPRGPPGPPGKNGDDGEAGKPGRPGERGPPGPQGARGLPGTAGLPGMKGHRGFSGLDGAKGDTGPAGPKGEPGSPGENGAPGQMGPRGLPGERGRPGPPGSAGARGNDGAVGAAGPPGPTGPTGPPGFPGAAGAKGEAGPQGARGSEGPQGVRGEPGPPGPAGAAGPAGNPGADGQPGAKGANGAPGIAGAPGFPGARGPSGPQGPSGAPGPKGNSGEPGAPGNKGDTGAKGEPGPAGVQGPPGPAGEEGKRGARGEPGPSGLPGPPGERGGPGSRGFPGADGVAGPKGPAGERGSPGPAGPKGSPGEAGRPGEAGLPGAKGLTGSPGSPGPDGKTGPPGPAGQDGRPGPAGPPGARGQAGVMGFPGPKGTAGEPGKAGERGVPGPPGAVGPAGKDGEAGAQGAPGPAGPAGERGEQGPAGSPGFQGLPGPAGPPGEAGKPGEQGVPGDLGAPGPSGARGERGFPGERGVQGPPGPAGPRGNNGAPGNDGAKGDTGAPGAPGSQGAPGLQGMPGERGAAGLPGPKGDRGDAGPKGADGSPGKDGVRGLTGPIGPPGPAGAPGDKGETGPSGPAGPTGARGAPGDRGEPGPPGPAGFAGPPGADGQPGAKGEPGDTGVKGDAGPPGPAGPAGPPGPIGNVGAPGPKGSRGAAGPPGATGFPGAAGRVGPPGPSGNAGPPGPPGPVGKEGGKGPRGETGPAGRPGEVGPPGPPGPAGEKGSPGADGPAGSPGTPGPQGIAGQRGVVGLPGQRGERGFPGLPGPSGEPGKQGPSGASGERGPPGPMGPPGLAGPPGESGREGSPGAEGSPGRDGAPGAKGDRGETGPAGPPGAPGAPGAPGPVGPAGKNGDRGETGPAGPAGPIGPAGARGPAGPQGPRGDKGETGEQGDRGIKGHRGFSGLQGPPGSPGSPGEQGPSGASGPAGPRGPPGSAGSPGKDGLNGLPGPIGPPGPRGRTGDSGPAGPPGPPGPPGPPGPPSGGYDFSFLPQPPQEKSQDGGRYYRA
UniProt P02454, sequence (P02466 86-1125, chain 2 of 2, further chain): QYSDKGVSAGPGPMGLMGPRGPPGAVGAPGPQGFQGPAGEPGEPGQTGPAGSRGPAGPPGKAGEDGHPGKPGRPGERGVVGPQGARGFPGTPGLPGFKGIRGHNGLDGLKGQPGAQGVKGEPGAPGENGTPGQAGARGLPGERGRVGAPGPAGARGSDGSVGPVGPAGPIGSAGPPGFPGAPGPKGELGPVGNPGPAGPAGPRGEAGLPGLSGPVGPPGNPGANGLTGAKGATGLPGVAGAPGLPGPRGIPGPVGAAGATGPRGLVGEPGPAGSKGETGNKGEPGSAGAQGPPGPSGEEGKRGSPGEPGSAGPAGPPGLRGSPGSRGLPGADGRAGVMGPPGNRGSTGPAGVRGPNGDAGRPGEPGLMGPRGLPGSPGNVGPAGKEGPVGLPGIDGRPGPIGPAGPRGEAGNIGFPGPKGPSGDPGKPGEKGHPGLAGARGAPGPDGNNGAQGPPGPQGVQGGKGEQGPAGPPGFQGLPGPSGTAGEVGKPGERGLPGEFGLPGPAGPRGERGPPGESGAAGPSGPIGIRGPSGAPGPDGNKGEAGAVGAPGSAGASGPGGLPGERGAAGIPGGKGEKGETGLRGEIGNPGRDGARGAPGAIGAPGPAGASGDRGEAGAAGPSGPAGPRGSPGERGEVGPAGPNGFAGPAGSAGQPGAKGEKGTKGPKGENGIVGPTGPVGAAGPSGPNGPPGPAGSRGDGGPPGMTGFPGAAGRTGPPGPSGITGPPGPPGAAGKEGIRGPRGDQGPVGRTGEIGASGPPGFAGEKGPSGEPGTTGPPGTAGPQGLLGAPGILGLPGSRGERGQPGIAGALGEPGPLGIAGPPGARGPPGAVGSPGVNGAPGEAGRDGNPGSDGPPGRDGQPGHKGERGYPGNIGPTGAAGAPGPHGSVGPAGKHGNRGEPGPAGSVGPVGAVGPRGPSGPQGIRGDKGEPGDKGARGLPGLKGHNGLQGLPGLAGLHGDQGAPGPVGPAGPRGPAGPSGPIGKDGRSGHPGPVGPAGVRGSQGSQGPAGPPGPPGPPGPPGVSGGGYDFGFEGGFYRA

“Yersinia enterocolitica Adhesin A (YadA), wild type, on the surface of E. coli cells (from UniProt A1JUB7 26-422) (natural protein)” had a fold difference of signal, induced against not-induced control in experiment [1] of 2.5 fold. In experiment [2], the fold change of signal, YadA-expressing against uninduced cells (collagen-coated, BSA-blocked wells) worked out at 4.1 fold and the fold change of signal, YadA-expressing against uninduced cells (collagen-coated, not BSA-blocked wells) was found to be 4.4 fold.

For the origin of these results see PMC7388967.
